This assay has as its target T1, FLAG-tagged wild-type human ERH (enhancer of rudimentary homolog) (human, UniProt P84090 1-104).
T1 construct: wild-type human ERH, expressed from pQE30/ERH-FLAG (formerly pQE30/ER-FLAG); also called ERH-FLAG; wild-type ERH
Briefly: pull-down; GST-PDIP46/SKAR[L7]- or GST-Ciz1[B]-coated Glutathione-Agarose beads incubated with equal amounts of purified FLAG-tagged ERH forms; binding buffer 20 mM HEPES pH 7.4, 50 mM NaCl, 75 mM KCl, 1 mM DTT, 1 mM EDTA, 10% glycerol, 0.05% Triton X-100; western blotting with anti-FLAG antibody. As to conditions: both partners purified. Background: In western blotting, separated proteins are transferred to a membrane and probed.

B1: GST-tagged fragment L7 of human PDIP46/SKAR (domain or fragment)
chain: NKEEPPKELPAAEPVLSPLEGTKMTVNNLHPRVTEEDIVELFCVCGALKRARLVHPGVAEVVFVKKDDAITAYKKYNNRCLDGQPMKCNLHMNGNVITSDQPILLRLSDSPSMKKESELPRRVNSASSSNPPAEVDPDTILKALFKSSGASVTTQPTEFKIKL
notes: fragment L7 of human PDIP46/SKAR comprising residues 259-421, expressed from pGEX-4T-1/PDIP46/SKAR[L7]; also called GST-PDIP46/SKAR[L7]; PDIP46/SKAR[L7]; source: E. coli XL1 Blue MRF', batch purified on Glutathione-Agarose beads
Regarding B1, the binding result was “binds”.

These data come from publication PMC3755989, “Identification of Amino Acid Residues of ERH Required for Its Recruitment to Nuclear Speckles and Replication Foci in HeLa Cells” (PLoS ONE, 2013).
